From publication PMC10694151, “Regulation of the cell division hydrolase RipC by the FtsEX system in Mycobacterium tuberculosis” (Nature Communications, 2023)

B1: FtsE (Rv3102c) of Mycobacterium tuberculosis (natural protein)
chain: MMITLDHVTKQYKSSARPALDDINVKIDKGEFVFLIGPSGSGKSTFMRLLLAAETPTSGDVRVSKFHVNKLRGRHVPKLRQVIGCVFQDFRLLQQKTVYDNVAFALEVIGKRTDAINRVVPEVLETVGLSGKANRLPDELSGGEQQRVAIARAFVNRPLVLLADEPTGNLDPETSRDIMDLLERINRTGTTVLMATHDHHIVDSMRQRVVELSLGRLVRDEQRGVYGMDR
notes: also called MtbFtsE; NBD
B2: FtsX (Rv3101c) of Mycobacterium tuberculosis (natural protein)
chain: MRFGFLLNEVLTGFRRNVTMTIAMILTTAISVGLFGGGMLVVRLADSSRAIYLDRVESQVFLTEDVSANDSSCDTTACKALREKIETRSDVKAVRFLNRQQAYDDAIRKFPQFKDVAGKDSFPASFIVKLENPEQHKDFDTAMKGQPGVLDVLNQKELIDRLFAVLDGLSNAAFAVALVQAIGAILLIANMVQVAAYTRRTEIGIMRLVGASRWYTQLPFLVEAMLAATMGVGIAVAGLMVVRALFLENALNQFYQANLIAKVDYADILFITPWLLLLGVAMSGLTAYLTLRLYVRR
notes: also called MtbFtsX

How the values were obtained:
MtbFtsEX/RipC = molecular target: T1, MtbFtsEX/RipC (Mycobacterium tuberculosis, UniProt O05779)
T1 construct: gene ftsE

[1] = molecular target: B2; assay: cryo-EM structure; FtsEX or FtsEX-RipC in peptidiscs, 3 mg/ml, ATP-free; details: both partners purified
[2] = molecular target: the molecule itself; assay: as above

T1 sequence (P9WHU3 34-385, one chain of several, further chain): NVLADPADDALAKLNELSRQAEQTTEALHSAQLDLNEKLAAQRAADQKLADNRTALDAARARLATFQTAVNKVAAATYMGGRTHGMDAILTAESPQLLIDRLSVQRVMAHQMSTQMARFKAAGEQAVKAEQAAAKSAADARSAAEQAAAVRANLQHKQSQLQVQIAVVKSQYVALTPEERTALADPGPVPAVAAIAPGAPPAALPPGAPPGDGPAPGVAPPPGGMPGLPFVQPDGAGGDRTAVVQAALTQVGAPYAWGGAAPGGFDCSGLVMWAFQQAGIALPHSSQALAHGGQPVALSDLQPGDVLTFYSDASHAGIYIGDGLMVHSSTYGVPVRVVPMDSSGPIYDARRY

Nc1ncnc2c1ncn2[C@@H]1O[C@H](COP(=O)(O)OP(=O)(O)O)[C@@H](O)[C@H]1O [ADP]
cryo-EM structure, 5.7 Å, polyalanine model (MtbFtsEX/RipC): with EM density compatible with an ADP molecule

B1
binding result [1]: binds

B2
stoichiometry N [2]: 2
